The target in the assay is T1, MASP-2 CCP1-CCP2-SP fragment (human, UniProt O00187 291-444; O00187 445-686).
T1 construct: range 291-444;range 445-686; also called MASP-2γB; MASP-2 catalytic fragment
Nature of the assay: SDS-stable complex formation of 125I-labelled MASP fragment with C1-inhibitor; irreversible inhibition preceded by reversible complex formation, non-linear regression. The protocol:
To assess the rate of SDS stable complex formation between the MASP-1 and MASP-2 CCP1-CCP2-SP fragments and C1-inhibitor, the ¹²⁵I-labelled MASP fragments at concentrations ranging between 30-100 nM were incubated with 100-350 nM C1-inhibitor at 37° C. in 20 mM HEPES, 140 mM NaCl, pH 7.4 for 40 minutes. Typically 11-13 samples were taken at varying time periods. […] The samples were further incubated at 37° C. for 30 minutes and run on reducing SDS-PAGE. Cleavages rates were visualized by means of autoradiography and the diminution of the reacted MASP chain was quantified using a GEL DOC 1000 instrument and Molecular Analyst Software for densitometric calculations (Bio-Rad, Hercules, Calif., USA). The kinetic constants were calculated assuming irreversible inhibition proceeded by reversible enzyme-inhibitor complex formation. Using steady-state approximation and neglecting the starting enzyme concentration compared to the starting inhibitor concentration ([I₀]>>[E₀]) the data was regressed on the following equation using non-linear regression methods: [E]=[E₀]exp(−kobst); kobs=k₂[I₀]/(Kᵢ+[I₀]), where kobs is the observed pseudo-first order rate of reaction, k₂ is the rate of irreversible enzyme-inhibitor complex formation and Kᵢ is the inhibitory constant.

T1 sequence (O00187 291-444 limits assumed, form in doubt, chain 1 of 2): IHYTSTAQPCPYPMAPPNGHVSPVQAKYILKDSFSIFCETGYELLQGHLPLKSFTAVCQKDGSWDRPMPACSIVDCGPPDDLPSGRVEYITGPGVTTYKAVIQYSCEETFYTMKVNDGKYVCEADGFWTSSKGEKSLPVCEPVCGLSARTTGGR
T1 sequence (O00187 445-686 limits assumed, form in doubt, chain 2 of 2): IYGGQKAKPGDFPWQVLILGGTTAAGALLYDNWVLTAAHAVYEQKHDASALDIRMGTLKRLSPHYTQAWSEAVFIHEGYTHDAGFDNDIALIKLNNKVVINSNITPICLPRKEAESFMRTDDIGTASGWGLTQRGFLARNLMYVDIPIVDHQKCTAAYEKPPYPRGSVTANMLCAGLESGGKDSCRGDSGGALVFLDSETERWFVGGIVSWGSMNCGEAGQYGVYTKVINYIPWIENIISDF

B1: C1-inhibitor (other, human, UniProt P05155 23-500, looked up)
chain: NPNATSSSSQDPESLQDRGEGKVATTVISKMLFVEPILEVSSLPTTNSTTNSATKITANTTDEPTTQPTTEPTTQPTIQPTQPTTQLPTDSPTQPTTGSFCPGPVTLCSDLESHSTEAVLGDALVDFSLKLYHAFSAMKKVETNMAFSPFSIASLLTQVLLGAGENTKTNLESILSYPKDFTCVHQALKGFTTKGVTSVSQIFHSPDLAIRDTFVNASRTLYSSSPRVLSNNSDANLELINTWVAKNTNNKISRLLDSLPSDTRLVLLNAIYLSAKWKTTFDPKKTRMEPFHFKNSVIKVPMMNSKKYPVAHFIDQTLKAKVGQLQLSHNLSLVILVPQNLKHRLEDMEQALSPSVFKAIMEKLEMSKFQPTLLTLPRIKVTTSQDMLSIMEKLEFFDFSYDLNLCGLTEDPDLQVSAMQHQTVLELTETGVEAAAASAISVARTLLVFEVQQPFLFVLWDQQHKFPVFMGRVYDPRA
notes: mature; Serum-purified, glycosylated; molecular weight of 71.1 kDa used
B1 gave a Ki of 8.8 nM.
